Test results from the supplement of paper PMC10567573.

B1: TRIM15 (parent)
chain: LLARLRELEQQIWKERDEYITKVS
B2: PRIM1 (parent)
chain: CCSSADICPKCWTLMTMAIRIIDR

Variants of: B1
Assay: protein stability index of a GFP-peptide fusion (GPS, HEK-293T) (PSI 1-6); higher = more stable
Conditions: c terminus: a fixed tail appended
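Further: lentivirally expressed fusions sorted by FACS into six bins by GFP to DsRed ratio, PSI derived from sequencing read proportions per bin multiplied by bin number.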

Protein stability index, by site and new letter:
R6: H 1.65; D 1.79; S 2.56; V 3.95; Q 1.44; E 1.82; P 2.44; T 1.76; K 2.13
Y19: P 1.55; E 1.39; T 1.67; M 2.21; W 2.07; D 2.12; Q 2.13; S 1.71; L 1.98; N 1.91
R4: S 1.78; Y 1.92; Q 1.74; M 2.36; G 2.56; W 2.67; N 1.58; P 1.6
L1: P 2.37; Q 2.83; S 2.12; C 1.84; D 2.31; K 2.05; Y 2.35; G 1.55; E 2.2; A 1.79; T 1.63; N 3.22; F 1.55
I12: W 1.43; P 1.77; V 1.65; E 2.38; C 1.42; L 1.67; Y 2.13; M 3.6; S 1.35; R 2.21
D17: Q 3.32; R 2.14; P 1.86; E 1.78; Y 3.07; L 1.04; N 1; T 2.08
S24: A 1.63; C 2.05; R 1.93; M 2.12; F 1.51; V 3; D 3.02; H 2.29; I 2.42; T 1.31; L 1.95; K 1.44
E15: N 1; I 1.42; D 2.08; L 2.15; G 1.18; Q 1.47
E18: Q 1.18; G 1.81; N 2.08
E7: P 2.57; Y 3.38; C 2.53; T 3.56; Q 1.61; V 3.16; L 2.97; N 1.84
Q11: D 2.36; N 1.68; P 1.62; H 1.98; R 2.29; S 2.51; M 1.08; W 1.08; V 2.12; A 1.98
K14: A 1.24; T 2.85; F 1.68; N 1; P 2.2; L 2.06; E 1.05; I 2.26
L8: G 2.9; D 2.48; Y 2.22; S 1.75; N 2.03; R 1.44; T 2.74; V 1.69; C 1.49; P 2.55; E 2.24; W 1.62; K 3.04; H 2.12
T21: H 1.49; L 2.39; K 1.48; Q 2.41; I 2.45; N 1.7; A 2.07; D 1.32; Y 2.02; P 2.59
I20: L 1.33; G 2.17; S 2.18; H 2.12; E 4.11; P 1.6; C 1.08; Q 2.09; R 2.91; M 1.71; F 3.15; N 1.63
A3: T 2.2; M 2.34; V 2.49; C 2.64; D 2.18; S 1.69; L 2; G 1.44; P 1.99; E 3.27; H 1.46
R16: Q 1.58; M 1.61; A 1.78; Y 2.13; L 3.68; H 1; E 2
L5: E 2.96; Y 1.77; M 1.83; S 3.44; G 2.6; N 2.43; P 2.65; Q 2.64; F 2.17; R 2.28; V 2.95; D 2.44
E9: C 2.11; D 3.17; F 3.06; W 1.69; T 3.38; I 1.96; P 2.29; L 1.8; R 2.22; Q 1.07; Y 1.59; K 1.62; N 1.94; H 1.45
V23: R 1.57; A 1.5; M 2.03; N 1.64; C 2.1; S 2.25; L 2; Q 1.71; W 1.7; D 3.9; T 1.63; H 1.86
K22: Y 1.9; W 2.06; V 1.97; R 2.46; D 1.97; F 1.72; T 1.43; G 2.25; I 1.78; N 1.38
L2: V 1.74; N 2.18; C 1.6; I 1.65; Q 1.22; F 1.67; S 2.34; Y 4.12; H 2.13; E 1.38; K 1.25; T 2.56; M 1.49; G 1.9; W 2.23
W13: V 1.96; P 1.81; C 2.68; Q 2.46; S 1.68; G 2.31; I 1.32; T 1.69; L 1.71; K 2.24; E 2.03; R 1.77; A 1.52; Y 1.51
Q10: F 3.2; D 2.21; K 2.02; T 1.09; E 1.51; G 1.58; M 3.32; W 3.11; N 2.35; S 1.18; I 2.65

Variants of: B2
Assay: as above
Conditions: c terminus: a fixed tail appended

Protein stability index of substitutions, site by site:
S3: D 1.56; T 1.53; K 1.45; N 1.95; H 2.16; C 1.65; L 2.32; M 2.7; Y 2.43; Q 2.08; W 1.42; F 1.51; E 2.04; I 1.87; R 1.9; P 1.28; A 1.82
A5: M 1.79; R 1.67; C 2.01; D 1.41; P 1.62; L 1.15; K 1.93; F 2.5; N 1.54; H 1.71; S 2.63; Q 1.51; G 1.7; T 2.98; I 1.33
S4: Q 2.66; C 2.72; W 1.51; I 1.79; L 2.24; R 2.42; F 2.39; G 1.85; N 1.72; K 2.2; D 1.48; T 1.63; H 1.72; V 2.19; Y 1.91; P 1.67; A 1.87; M 2.97; E 2.11
C2: W 1.78; N 2.03; G 1.6; E 1.83; D 2.41; Q 1.9; Y 1.96; I 1.74; S 1.96; V 2.06; F 1.83; R 1.91; L 2.55; H 1.69; K 1.45; A 2.49; P 2.21; M 2.48
C1: K 1.61; E 1.6; M 2.5; H 1.87; P 1.78; I 1.53; W 2.25; V 2.87; S 1.79; L 2; R 2.01; G 1.88; Q 1.85; D 2.01; F 1.5; Y 1.37; T 2.12; N 1.49
